In patent US20020177231A1 (published 2002):

Molecular target: T1, PYK2 (UniProt Q14289 1-1009, limits assumed)
T1 construct: Endogenous protein in cell lysate, detected with anti-PYK2 monoclonal antibody P47120 (Transduction Labs)
Assay: GST pull-down from JY8-8 lysate, anti-Pyk2 immunoblot
Experimental: In preparation of cell lysate including Pyk2, JY8-8 cell lysate was prepared by disrupting 4×10⁷ exponentially growing cells in one ml of Ipegal Lysis Buffer (described above) for 10 minutes on ice. Lysate was clarified by centrifugation at 10,000 rpm in a microfuge at 4° C. JY8-8 lysate (corresponding to approximately 1×10⁷ cells) was incubated for 90 minutes with 30 μl glutathione agarose on which approximately one μg of GST or GST-containing fusion protein was immobilized. The resin was washed three times with one ml Ipegal lysis buffer.
Pyk2 present in lysates of JY8-8 cells bound specifically to GST-LD protein but not to GST alone. Pyk2 binding was detected with wild-type GST-LD, and GST-LD proteins with mutations in the second or fourth LD motifs.

T1 sequence (Q14289 whole entry): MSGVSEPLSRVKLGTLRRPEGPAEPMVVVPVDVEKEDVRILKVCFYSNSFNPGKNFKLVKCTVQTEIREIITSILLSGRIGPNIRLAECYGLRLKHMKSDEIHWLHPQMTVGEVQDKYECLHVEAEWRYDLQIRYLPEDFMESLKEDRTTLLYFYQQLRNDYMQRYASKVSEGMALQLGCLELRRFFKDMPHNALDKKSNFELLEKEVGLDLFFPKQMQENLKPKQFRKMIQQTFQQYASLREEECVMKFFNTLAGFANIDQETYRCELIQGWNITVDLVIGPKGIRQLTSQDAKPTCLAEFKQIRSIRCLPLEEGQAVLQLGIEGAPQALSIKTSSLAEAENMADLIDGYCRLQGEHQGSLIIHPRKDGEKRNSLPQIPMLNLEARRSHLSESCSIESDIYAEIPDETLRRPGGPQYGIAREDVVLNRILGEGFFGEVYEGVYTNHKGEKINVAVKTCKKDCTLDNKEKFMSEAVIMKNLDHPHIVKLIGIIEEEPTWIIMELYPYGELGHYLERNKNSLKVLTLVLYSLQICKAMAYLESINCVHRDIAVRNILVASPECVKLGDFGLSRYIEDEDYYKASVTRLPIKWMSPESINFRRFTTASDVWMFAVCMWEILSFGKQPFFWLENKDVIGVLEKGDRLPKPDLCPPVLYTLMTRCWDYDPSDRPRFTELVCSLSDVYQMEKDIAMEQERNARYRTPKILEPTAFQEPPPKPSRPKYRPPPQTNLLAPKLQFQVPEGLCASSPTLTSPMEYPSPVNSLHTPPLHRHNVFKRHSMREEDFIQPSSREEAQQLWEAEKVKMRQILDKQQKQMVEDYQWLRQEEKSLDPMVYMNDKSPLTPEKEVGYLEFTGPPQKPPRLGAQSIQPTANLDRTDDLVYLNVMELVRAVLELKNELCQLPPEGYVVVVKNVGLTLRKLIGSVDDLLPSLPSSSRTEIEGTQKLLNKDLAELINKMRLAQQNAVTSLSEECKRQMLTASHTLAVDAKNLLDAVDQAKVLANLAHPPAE

binding result: no binding
B1: GST-LD with a mutation in the third LD motif (other)
chain: EELDALLEELERSTLQDSDEYSNPAPLPLDQHSRKETNLDETSEILSIQDNTSPLPAQLVYTTNIQELNVYSEAQEPKESPPPSKTSAAAQAAALMAHLTEMQAKVAVRADAGKKHLPDKQDHKASLDSMLGGLEQELQDLGIATVPK
notes: not shown: glutathione-S-transferase (GST) encoded by vector pGEX-4T-1 (Pharmacia)
